Measurements from patent publication US20100166741A1 (Genentech, published 2010).

Columns and labels:
[1] = molecular target: T1, mouse FcγRII extracellular domain, His-tagged GST fusion (mouse, UniProt P08101 30-210); assay: Fcγ receptor ELISA; bar = fold change in binding relative to Herceptin (EC50 Herceptin/EC50 sample), log axis 0.1-100
T1 construct: extracellular domain; also called Mouse II; not shown: His tag and GST
T1 sequence (looked up): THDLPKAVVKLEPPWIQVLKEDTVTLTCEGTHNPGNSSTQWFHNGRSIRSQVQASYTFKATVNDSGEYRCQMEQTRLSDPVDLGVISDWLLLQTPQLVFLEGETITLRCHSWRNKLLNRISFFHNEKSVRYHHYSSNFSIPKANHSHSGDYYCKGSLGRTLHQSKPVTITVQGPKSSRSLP

[2] = molecular target: T2, mouse FcγRIII extracellular domain, His-tagged GST fusion (mouse, UniProt P08508 31-215); assay: as above
T2 construct: extracellular domain; also called Mouse III; not shown: His tag and GST
T2 sequence (looked up): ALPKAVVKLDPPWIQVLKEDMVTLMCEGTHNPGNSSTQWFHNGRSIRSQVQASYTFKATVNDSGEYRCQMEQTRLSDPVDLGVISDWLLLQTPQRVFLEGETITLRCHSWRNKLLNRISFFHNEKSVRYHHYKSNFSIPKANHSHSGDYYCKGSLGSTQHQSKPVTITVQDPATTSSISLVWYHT

[3] = molecular target: T3, mouse FcγRI extracellular domain, His-tagged GST fusion (mouse, UniProt P26151 25-297); assay: as above
T3 construct: extracellular domain; also called Mouse I; mFcγRI; not shown: His tag and GST
T3 sequence (looked up): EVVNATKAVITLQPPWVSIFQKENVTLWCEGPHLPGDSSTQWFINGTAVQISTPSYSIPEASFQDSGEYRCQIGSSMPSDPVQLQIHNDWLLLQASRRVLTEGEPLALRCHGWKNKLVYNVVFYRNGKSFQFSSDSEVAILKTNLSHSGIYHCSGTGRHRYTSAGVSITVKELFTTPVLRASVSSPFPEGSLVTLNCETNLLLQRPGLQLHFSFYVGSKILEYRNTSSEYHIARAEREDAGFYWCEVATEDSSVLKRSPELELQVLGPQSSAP

[4] = molecular target: T4, human FcγRIIIa (F158) extracellular domain, His-tagged GST fusion (human, UniProt P08637 17-208); assay: as above
T4 construct: extracellular domain; also called hFcgRIII (F158); FcγRIII (F158 allele); not shown: C-terminal Gly/His6/GST tag

[5] = molecular target: T5, human FcγRI extracellular domain, His-tagged GST fusion (human, UniProt P12314 16-292); assay: as above
T5 construct: extracellular domain; also called hFcgRI; FcγRIA; not shown: C-terminal Gly/His6/GST tag

[6] = molecular target: T6, human FcγRIIa extracellular domain, His-tagged GST fusion (human, UniProt P12318 34-217); assay: ELISA, captured FcγR-GST, multimeric IgG
T6 construct: extracellular domain; also called hFcgRIIa; CD32A; not shown: C-terminal Gly/His6/GST tag
T6 sequence (looked up): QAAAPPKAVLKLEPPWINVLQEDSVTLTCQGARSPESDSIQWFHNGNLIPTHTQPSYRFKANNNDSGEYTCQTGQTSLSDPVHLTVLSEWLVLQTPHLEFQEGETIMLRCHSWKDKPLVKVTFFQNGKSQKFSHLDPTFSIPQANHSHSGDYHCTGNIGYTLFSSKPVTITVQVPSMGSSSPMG

[7] = molecular target: T7, human FcγRIIb extracellular domain, His-tagged GST fusion (human, UniProt P31994 43-217); assay: ELISA, captured FcγR-GST, multimeric IgG
T7 construct: extracellular domain; also called hFcgRIIb; CD32B; not shown: C-terminal Gly/His6/GST tag
T7 sequence (looked up): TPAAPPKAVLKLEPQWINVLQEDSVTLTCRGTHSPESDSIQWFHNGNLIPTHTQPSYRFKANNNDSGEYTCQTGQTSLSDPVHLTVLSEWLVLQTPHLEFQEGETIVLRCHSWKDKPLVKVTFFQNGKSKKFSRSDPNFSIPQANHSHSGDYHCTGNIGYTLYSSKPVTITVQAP

[8] = molecular target: T8, human FcγRIIIa (V158) extracellular domain, His-tagged GST fusion (human, UniProt P08637 17-208); assay: ELISA, captured FcγR-GST, multimeric IgG
T8 construct: extracellular domain; also called hFcgRIII (V158); FcγRIII (V158 allele); not shown: C-terminal Gly/His6/GST tag

[9] = molecular target: T4, human FcγRIIIa (F158) extracellular …; assay: ELISA, captured FcγR-GST, multimeric IgG
[10] = molecular target: T5, human FcγRI extracellular domain, …; assay: ELISA, captured FcγR-GST, monomeric IgG

T4 sequence (P08637 17-208): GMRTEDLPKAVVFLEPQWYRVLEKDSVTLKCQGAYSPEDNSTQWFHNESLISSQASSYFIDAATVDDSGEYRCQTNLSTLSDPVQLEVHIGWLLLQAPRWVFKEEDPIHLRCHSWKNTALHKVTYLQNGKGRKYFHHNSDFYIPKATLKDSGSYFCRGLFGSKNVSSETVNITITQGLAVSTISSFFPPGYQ
T8 sequence (P08637 17-208 F176V): as the sequence (P08637 17-208) above, with F160V counted along it

B1: V3(5) (antibody, human IgG1, kappa)
heavy chain: EVQLVESGGGLVQPGGSLRLSCAASGFTISSSSIHWVRQAPGKGLEWVAWVLPSVGFTDYADSVKGRFTISADTSKNTAYLQMNSLRAEDTAVYYCARRVCYNRLGVCAGGMDYWGQGTLVTVSSASTKGPSVFPLAPSSKSTSGGTAALGCLVKDYFPEPVTVSWNSGALTSGVHTFPAVLQSSGLYSLSSVVTVPSSSLGTQTYICNVNHKPSNTKVDKKVEPKSCDKTHTCPPCPAPELLGGPSVFLFPPKPKDTLMISRTPEVTCVVVDVSHEDPEVKFNWYVDGVEVHNAKTKPREEQYNATYRVVSVLTVLHQDWLNGKEYKCKVSNAALPAPIAATISKAKGQPREPQVYTLPPSREEMTKNQVSLTCLVKGFYPSDIAVEWESNGQPENNYKTTPPVLDSDGSFFLYSKLTVDKSRWQQGNVFSCSVMHEALHNHYTQKSLSLSPG
light chain: DIQMTQSPSSLSASVGDRVTITCRASQDVSTAVAWYQQKPGKAPKLLIYSASFLYSGVPSRFSGSGSGTDFTLTISSLQPEDFATYYCQQSQISPPTFGQGTKVEIKRTVAAPSVFIFPPSDEQLKSGTASVVCLLNNFYPREAKVQWKVDNALQSGNSQESVTEQDSKDSTYSLSSTLTLSKADYEKHKVYACEVTHQGLSSPVTKSFNRGEC
notes: also called V3-46s S298A/K326A/E333A/K334A
B1: binds [1]; binds [2]; binds [3]. B1: binds [4]; binds [5].

B2: V3-46s IgG (antibody)
heavy: not shown
light: B1 light chain
notes: also called HV3-46S; HV3-46S-Bulk
B2: binds [1]; binds [2]; binds [3]. It also gave an EC50 [6] of 0.3 µg/mL, an EC50 [7] of 1.02 µg/mL and an EC50 [8] of 0.28 µg/mL. The EC50 [9] was 1.52 µg/mL and the EC50 [10] was 0.00158 µg/mL.
